Assay results from patent publication US20200323888A1, “INHIBITORS” (VESTLANDETS INNOVASJONSSELSKAP AS, priority 2017, published 2020).
Primed or numbered codes have the meaning given here. Ends that are not written are not given here. Ac′ = acetamide linker; CoA = coenzyme A

Legend:
[1] = biological target: T1, NatA complex (Naa15-Naa10) (human, UniProt P41227 1-235; Q9BXJ9 1-866); assay: cell-based or functional assay
T1 sequence (looked up) 1: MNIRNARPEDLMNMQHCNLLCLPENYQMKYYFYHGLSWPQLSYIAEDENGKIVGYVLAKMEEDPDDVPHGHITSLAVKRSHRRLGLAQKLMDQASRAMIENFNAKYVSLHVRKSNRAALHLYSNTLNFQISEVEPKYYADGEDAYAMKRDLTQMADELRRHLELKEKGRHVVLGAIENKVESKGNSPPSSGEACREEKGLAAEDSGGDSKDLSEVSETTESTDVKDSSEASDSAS
T1 sequence (looked up) 2: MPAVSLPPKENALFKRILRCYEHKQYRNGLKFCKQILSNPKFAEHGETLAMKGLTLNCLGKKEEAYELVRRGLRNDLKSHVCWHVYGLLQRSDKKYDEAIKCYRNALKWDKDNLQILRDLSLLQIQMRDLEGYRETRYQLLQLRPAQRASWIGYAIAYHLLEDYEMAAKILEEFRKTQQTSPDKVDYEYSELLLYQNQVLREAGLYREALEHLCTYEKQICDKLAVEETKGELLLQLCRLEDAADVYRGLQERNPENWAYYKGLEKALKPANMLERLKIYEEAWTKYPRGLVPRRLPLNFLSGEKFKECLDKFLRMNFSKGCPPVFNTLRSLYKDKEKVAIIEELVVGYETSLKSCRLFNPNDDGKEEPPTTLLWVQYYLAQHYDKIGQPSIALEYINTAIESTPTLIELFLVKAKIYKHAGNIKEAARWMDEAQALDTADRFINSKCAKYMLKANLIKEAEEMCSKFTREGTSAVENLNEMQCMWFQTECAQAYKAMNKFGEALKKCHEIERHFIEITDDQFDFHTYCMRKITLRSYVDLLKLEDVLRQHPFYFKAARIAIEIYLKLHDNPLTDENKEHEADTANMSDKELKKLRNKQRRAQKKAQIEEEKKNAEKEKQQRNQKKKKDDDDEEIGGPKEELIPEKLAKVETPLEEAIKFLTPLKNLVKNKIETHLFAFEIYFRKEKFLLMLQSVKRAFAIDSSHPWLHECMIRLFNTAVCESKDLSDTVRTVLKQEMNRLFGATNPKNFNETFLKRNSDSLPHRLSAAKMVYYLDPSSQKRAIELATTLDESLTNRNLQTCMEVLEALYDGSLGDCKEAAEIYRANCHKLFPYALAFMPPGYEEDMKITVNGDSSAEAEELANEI

[2] = biological target: T1, NatA complex (Naa15-Naa10); assay: comparison of Ki values from Nt-acetylation inhibition assays
[3] = biological target: Naa30 (UniProt Q147X3); assay: Ki calculated by Cheng-Prusoff from IC50 of Nt-acetylation inhibition assay
Chain of Naa30 (Q147X3 whole entry): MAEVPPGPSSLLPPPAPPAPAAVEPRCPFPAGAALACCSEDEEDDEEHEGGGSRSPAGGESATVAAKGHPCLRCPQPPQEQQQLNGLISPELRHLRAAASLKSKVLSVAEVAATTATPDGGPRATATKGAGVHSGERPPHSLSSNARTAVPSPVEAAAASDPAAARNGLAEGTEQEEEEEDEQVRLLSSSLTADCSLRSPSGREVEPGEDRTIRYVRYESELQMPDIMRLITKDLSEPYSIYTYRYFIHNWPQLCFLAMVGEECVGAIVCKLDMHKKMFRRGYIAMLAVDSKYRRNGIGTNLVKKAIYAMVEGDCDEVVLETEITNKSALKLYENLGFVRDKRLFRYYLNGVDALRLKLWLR

[4] = biological target: Naa40 (Homo sapiens, UniProt Q86UY6); assay: as above
[5] = biological target: Naa50 (human) (UniProt Q9GZZ1); assay: as above
[6] = biological target: Naa60 (Homo sapiens, UniProt Q9H7X0); assay: as above
[7] = biological target: NatB (Homo sapiens, UniProt P61599); assay: as above
Chain of NatB (P61599 whole entry, the tested form may be a part): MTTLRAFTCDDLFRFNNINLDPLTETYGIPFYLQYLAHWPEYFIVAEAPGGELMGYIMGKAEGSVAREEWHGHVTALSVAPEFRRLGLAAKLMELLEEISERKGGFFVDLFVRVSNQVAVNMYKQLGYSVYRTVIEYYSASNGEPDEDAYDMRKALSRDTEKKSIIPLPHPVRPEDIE

[8] = biological target: T1, NatA complex (Naa15-Naa10); assay: as above
[9] = biological target: T2, Naa10 (monomeric) (human, UniProt P41227 1-235, limits assumed); assay: as above
T2 construct: also called hNaa10; Ard1
T2 sequence (looked up): T1 sequence (looked up) 1

[10] = biological target: T3, Naa80 (Homo sapiens, UniProt Q93015); assay: Naa80 substrate screening assay (peptide acetylation by purified Naa80); type: biochemical; conditions: Naa80 mediated acetylation of 24-mer peptide substrates
T3 construct: The PCR product containing the CDS was inserted into the TOPO TA vector; made in house; host or cells: E. coli BL21 Star (DE3)
T3 sequence (Q93015 1-308 isoform Q93015-2): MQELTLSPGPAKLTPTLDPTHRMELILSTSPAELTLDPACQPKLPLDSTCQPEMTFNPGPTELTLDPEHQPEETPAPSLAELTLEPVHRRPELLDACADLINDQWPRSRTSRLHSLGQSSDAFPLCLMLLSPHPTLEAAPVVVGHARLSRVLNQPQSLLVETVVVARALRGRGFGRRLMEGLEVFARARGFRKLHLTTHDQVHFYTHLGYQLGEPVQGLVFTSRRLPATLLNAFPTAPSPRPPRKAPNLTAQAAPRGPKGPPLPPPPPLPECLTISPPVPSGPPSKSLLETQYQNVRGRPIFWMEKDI
Description: In order to investigate the in vitro activity of Naa80 further, an enzyme activity screening assay on purified Naa80 was undertaken using a broad substrate library (including amino acids, nucleosides, coenzymes, amines, saccharides, vitamins, antioxidants and peptides) modified from Kuhn et al. (Kuhn et al. (2013) “Broad-substrate screen as a tool to identify substrates for bacterial Gcn5-related N-acetyltransferases with unknown substrate specificity”. Protein Science 22(2):222-230). Among all of the potential substrates tested, only the peptides with N-terminal sequence of MDEL24 (SEQ ID NO: 45), DDDI24 (SEQ ID NO: 41) and EEEI24 (SEQ ID NO: 40) were acetylated, as shown in the following table:
The 24-mer substrate peptides differed in their 7 N-terminal amino acids while the 17 C-terminal residues (RWGRPVGRRRRPVRVYP, SEQ ID NO: 39) were kept constant: EEEI24 (EEEIAAL, SEQ ID NO: 40), DDDI24 (DDDIAAL, SEQ ID NO: 41), MDDD24 (MDDDIAA, SEQ ID NO: 42), SESS24 (SESSSKS, SEQ ID NO: 43), AVFA24 (AVFADLD, SEQ ID NO: 44), MDEL24 (MDELFPL, SEQ ID NO: 45), MELL24 (MELLSPP, SEQ ID NO: 46), MLGT24 (MLGTGPA, SEQ ID NO: 47), MTNK24 (MTNKSSL, SEQ ID NO: 48), MLGP24 (MLGPEGG, SEQ ID NO: 49), MAPL24 (MAPLDLD, SEQ ID NO: 50), MKKS24 (MKKSYSG, SEQ ID NO: 51).
Both MDEL (p65, SEQ ID NO: 8) and MDDD24 (unprocessed β-actin, SEQ ID NO: 42) represent cellular NatB substrates.

[11] = biological target: T3, Naa80; assay: as above; type: biochemical; conditions: linear range of enzyme concentration
[12] = biological target: T4, NatA (Homo sapiens, UniProt P41227); conditions: NatA complex; Foyn et al. 2013; cited from earlier work
T4 construct: endogenous in cells
T4 sequence (P41227 1-235): T1 sequence (looked up) 1
T4 sequence (Q9BXJ9 1-866 partner): T1 sequence (looked up) 2

[13] = biological target: T5, Naa50 (Homo sapiens, UniProt Q9GZZ1); conditions: NatE/hNaa50; Foyn et al. 2013; cited from earlier work
T5 sequence (Q9GZZ1 1-169): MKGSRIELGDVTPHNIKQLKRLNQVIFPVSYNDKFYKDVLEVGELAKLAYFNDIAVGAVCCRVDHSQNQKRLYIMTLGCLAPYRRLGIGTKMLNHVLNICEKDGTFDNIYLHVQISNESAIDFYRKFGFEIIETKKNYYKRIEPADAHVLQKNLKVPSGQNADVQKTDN

[14] = biological target: T3, Naa80; assay: Nt-acetylation inhibitor assay for Naa80; type: biochemical; conditions: Naa80
Protocol: FIG. 10: (A) IC50 values for inhibitors measured in an Nt-acetylation inhibitor assay for Naa80. (B) Ki-values for CoA-Ac-DDDI-NH2 (SEQ ID NO: 6) for different human NATs measured in an Nt-acetylation inhibitor assay. All reactions were performed at least three times and in triplicate; errors bars represent standard deviation of each measurement.
The IC50 values for these compounds were tested as described in Foyn H, et al. (2013) “Design, Synthesis, and Kinetic Characterization of Protein N-Terminal Acetyltransferase Inhibitors”. ACS Chem Biol 8:1121-1127; and Foyn H, et al. (2017) “DTNB-Based quantification of in vitro enzymatic N-terminal acetyltransferase activity”, Methods Mol. Biol. 1574:9-15. Briefly, a colorimetric acetylation assay, 5,5′-dithiobis-(2-nitrobenzoic acid) (DTNB) assay was used to measure the catalytic activity of NATs after incubation with NAT inhibitors. In the DTNB assay, thiols present in the enzymatic product, CoA, cleaves DTNB and produces 2-nitro-5-thiobenzoate (NTB-), which absorbs light with a wavelength of 412 nm. NTB- forms in a 1:1 molar ratio to the thiol groups present in the sample. Therefore, NTB- was quantified by measuring the absorbance at 412 nm and indirectly measures peptide Nt-acetylation. […] After 30 min-60 min incubation at 37° C., the enzyme activity was quenched with quenching buffer (3.2 M guanidinium-HCl, 100 mM sodium phosphate dibasic pH 6.8). Triplicates were run for all positive samples, while negative controls were duplicated. As a negative control, reactions without enzyme were incubated at 37° C. before the reaction was quenched and added enzyme. In order to measure CoA production, 2 mM DTNB (dissolved in 100 mM sodium phosphate dibasic pH 6.8 and 10 mM EDTA) was added to the quenched reaction and the absorbance at 412 nm was measured with a spectrophotometer (Epoc). Background absorbance (determined in negative controls) was subtracted from the absorbance determined in each individual reaction. Thiophenolate production was quantified assuming ε=13.7×103 M−1 cm−1. For NatA and NatB enzyme complex inhibition, immunoprecipitation was performed using Naa15 ab (custom made, Arnesen T, Anderson D, Baldersheim C, Lanotte M, Varhaug J E, Lillehaug J R. (2005) Identification and characterization of the human ARD1-NATH protein acetyltransferase complex. Biochemical J 386(Pt 3):433-43.) or Naa20 ab (Nat5, abnova) respectively and protein A/G magnetic agarose beads (Millipore). A similar Nt-acetylation reaction was performed as previously described and the enzymatic activity was quenched with a final concentration of 1% TFA and analyzed by HPLC (Evjenth R, Van Damme P, Gevaert K, Arnesen T (2013) HPLC-based Quantification of in vitro N-terminal Acetylation. Methods Mol Biol 981:95-102.).
We then pursued Naa80 bisubstrate analogue inhibitors based on the results of the substrate screening and the sequences of the cellular substrates processed β- and γ-actin. We synthesized bisubstrate conjugates of Coenzyme A coupled to the tetrapeptides MDEL-NH2 (SEQ ID NO: 8), DDDI-NH2 (SEQ ID NO: 6), EEEI-NH2 (SEQ
ID NO: 7), and MLGT-NH2 (SEQ ID NO: 52) via an acetamide (Ac) linker.
The following additional Naa80 bisubstrate analogue inhibitors were produced and tested as described above: […]

[15] = biological target: T6, Naa10 (Homo sapiens, UniProt P41227); conditions: hNaa10, catalytic subunit of NatA; Foyn et al. 2013; cited from earlier work
T6 sequence (P41227 1-235): T1 sequence (looked up) 1

[16] = biological target: T7, MBP-HishNAA80 fusion protein (MBP-Naa80) (human, UniProt Q93015-2 1-308); assay: cell-based or functional assay
T7 sequence (looked up): T3 sequence (Q93015 1-308 isoform Q93015-2)

[17] = biological target: T7, MBP-HishNAA80 fusion protein (MBP-Naa80); assay: cell-based or functional assay; remark: listed apart in the source
[18] = biological target: T2, Naa10 (monomeric); assay: Ki from Nt-acetylation inhibitor assay, panel of human NATs
[19] = biological target: T7, MBP-HishNAA80 fusion protein (MBP-Naa80); assay: as above

Molecule: CoA-Ac-SSNleP-NH2 (peptide)
- IC50 (µM), Nt-acetylation inhibition [1]: 1.46 µM
- fold more potent towards NatA than all the other NATs tested [2]: > 100 fold
- Ki [3]: 132 µM
- Ki [4]: 41.9 µM
- Ki [5]: 17.7 µM
- Ki [6]: 3.1 µM
- Ki [7]: 41.6 µM
- Ki [8]: 0.143 µM
- Ki [9]: 98.9 µM

Molecule: MDEL24: 24-mer substrate peptide: N-terminal MDELFPL (SEQ ID NO: 45) plus constant RWGRPVGRRRRPVRVYP (MDELFPLRWGRPVGRRRRPVRVYP)
- Product formation [10]: 119 (±5.61) μM
- higher product formation compared to second best substrate MDDD24 [11]: 5 fold

Molecule: CC(C)(COP(=O)(O)OP(=O)(O)OCC1OC(n2cnc3c(N)ncnc32)C(O)C1OP(=O)(O)O)C(O)C(=O)NCCC(=O)NCCSCC(=O)N[C@@H](CO)C(=O)N[C@@H](CCC(=O)O)C(=O)N[C@@H](CO)C(=O)N[C@@H](CO)C(N)=O (some centres unmarked) [CoA-Ac-SESS]
- IC50 [12]: 15.1 µM

Molecule: CoA-Ac-MLG7: Previously disclosed bisubstrate analogue inhibitor of NatE/hNaa50 (SEQ ID NO: 49), Foyn 2013 ({CoA-Ac′}-MLGPEGG)
- IC50 [13]: 1.29 µM

Molecule: CC[C@H](C)[C@H](NC(=O)[C@H](CCC(=O)O)NC(=O)[C@H](CCC(=O)O)NC(=O)[C@H](CCC(=O)O)NC(=O)CSCCNC(=O)CCNC(=O)C(O)C(C)(C)COP(=O)(O)OP(=O)(O)OCC1OC(n2cnc3c(N)ncnc32)C(O)C1OP(=O)(O)O)C(N)=O (some centres unmarked) [CoA-Ac-EEEI-NH2]
- IC50 [14]: 1.16 µM
- IC50 [15]: 10.1 µM

B1: CoA-Ac-DDDI-NH2 (peptide)
peptide: {CoA-Ac}-DDDI-NH2
- fold more potent than CoA-Ac-EEEI-NH2 (IC50) [16]: 3 fold
- fold more potent than CoA-Ac-MDEL-NH2 (IC50) [16]: 3.3 fold
- IC50 (µM), Nt-acetylation inhibition [17]: 0.38 µM
- fold reduced potency for Naa10 compared to Naa80 [18]: 88 fold
- Ki [19]: 0.043 µM
